Results reported in US11155612 (CENTRO DE INVESTIGACI N CIENT FICA Y DE EDUCACI N SUPERIOR …, dated 2021).
Substitutions are numbered along the chain they refer to. Names and notes keep the numbering of the source.

B1: vNAR V13 (parental sequence) (other)
chain: ASLDQTPRTATRETGESLSINCVLTDTSHILFGTKWLWNNPGSTDWESITIGGRYAESVNNQAKSFSLQIKDLTVEDSGTYYCKAQTIGRRKNLLPRPLVNGIAAMGYSSSDYDGAGTVLTVN
B2: vNAR R97A (clone M4) (other)
chain: B1 chain with R97A
B3: vNAR P98Y (clone M1), anti-VEGF vNAR of SEQ ID NO:1 (other)
chain: B1 chain with P98Y

Target: VEGF (added at 4 ng/ml in the HUVEC/NHDF angiogenesis assay)
Sequence (P15692 whole entry): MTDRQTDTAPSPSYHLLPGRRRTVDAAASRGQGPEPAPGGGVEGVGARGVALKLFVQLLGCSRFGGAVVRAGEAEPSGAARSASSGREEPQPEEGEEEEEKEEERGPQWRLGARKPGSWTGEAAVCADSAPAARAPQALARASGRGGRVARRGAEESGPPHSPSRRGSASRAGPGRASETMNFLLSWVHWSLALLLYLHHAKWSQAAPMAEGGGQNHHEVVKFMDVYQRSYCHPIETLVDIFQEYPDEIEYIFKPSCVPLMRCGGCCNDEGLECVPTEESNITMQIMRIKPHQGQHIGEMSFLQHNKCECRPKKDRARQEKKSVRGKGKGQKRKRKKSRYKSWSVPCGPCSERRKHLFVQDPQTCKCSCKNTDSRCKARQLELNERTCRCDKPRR
Assay: cell-based or functional assay

Binder | IC50 angiogenesis: network branching [µg/mL] | IC50 angiogenesis: tube length [µg/mL]
B1 | 18 | 18
B2 | 33 | 21
B3 | 11 | 9
